T1: recombinantly expressed purified soluble WNV E protein (truncated form, strain 382-99) (West Nile virus strain 382-99, UniProt Q9Q6P4 291-696)
T1 construct: also called recombinant WNV-E protein; truncated E protein
T1 sequence: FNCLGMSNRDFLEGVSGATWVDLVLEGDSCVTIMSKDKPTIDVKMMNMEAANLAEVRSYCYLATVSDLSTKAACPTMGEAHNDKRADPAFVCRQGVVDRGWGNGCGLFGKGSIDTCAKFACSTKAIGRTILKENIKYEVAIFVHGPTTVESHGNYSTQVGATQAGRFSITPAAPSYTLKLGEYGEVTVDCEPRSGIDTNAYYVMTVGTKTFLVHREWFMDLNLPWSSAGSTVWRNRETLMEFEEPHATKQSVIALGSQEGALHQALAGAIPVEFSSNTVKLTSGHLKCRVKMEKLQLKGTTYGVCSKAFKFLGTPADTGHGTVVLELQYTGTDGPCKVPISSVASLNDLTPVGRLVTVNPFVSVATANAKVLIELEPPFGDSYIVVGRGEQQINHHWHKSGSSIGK

B1: SC04-374 (scFv)
scFv: QVTLKESGPTLVKPTQTLTLTCTFSGFSLSTSGVGVGWIRQPPGKALEWLAVIYWNDDKLYRPSLKSRLTITKDTSKNQVVLTMTKMDPVDTATYYCAHRHRYYDISGYYRLFSDAFDIWGQGTMVTVSSGTGGSGGTGSGTGGSTQSVVTQPPSVSGAPGQRVTISCTGSSSNIGAGYDVHWYQQLPGTAPKLLIYGNSNRPSGVPDRFSGSKSGTSASLAITGLQAEDEADYYCQSYDSSLSGSVFGGGTKLTVLG
B2: SC04-299 (scFv)
scFv: EVQLVETGGGVVQPGRSLRLSCAASGFTFSGYAMHWVRQAPGKGLDWVAVISYDGSEKYSADSVKGRFTISRDNSKNTLYLQMNSLRAEDTAVYYCAKESGGPIWYKYYGVDVWGQGTTVTVSSGTGGSGGTGSGTGGSTSYVLTQPPSLSAAPRQRVTISCSGSSSNIGNYGVNWYQQLPGKAPKLLIYYDDLLPSGVSDRFSGSKSGTSASLAISGLQSEDEGDYYCAAWDDTLSAWVFGGGTKLTVLG
B3: SC04-283 (scFv)
scFv: EVQLVQSGAEVKKSGESLKISCKGSGYTFNTYWIGWVRQMPGKGLEWMGIIYPGDSDTIYSPSFQGQVTISADKSISTAYLQWSSLKASDSAMYYCARLTFRRGYSGSDSFLPPGDFDYWGQGTLVTVSSGTGGSGGTGSGTGGSTDIQMTQSPSTLSASVGDRVTITCRASQSISSWLAWYQQKPGKAPNLLIYAASSLQSGVPSRFSGSGSGTDFTLTISSLQPDDSATYYCQQYNTYPLTFGGGTKVEIKR
B4: SC04-325 (scFv)
scFv: QMQLVQSGAEVKKPGSSVKVSCKASGDTFSSYAISWVRQAPGQGLEWMGGIFGTASYAQKFQGRVTITADESTSTAYMELSSLRSEDTAVYYCARGGMATTPGLDYWGQGTLVTVSSGTGGSGGTGSGTGGSTDIQLTQSPDSLAVSLGERATINCKSSQSVLYSSNNKNYLAWYQQKPGQPPKLLIYWASTRESGVPDRFSGSGSGTDFTLTISSLQAEDVAVYYCQQYYSTPLTFGQGTKVEIKR
B5: SC04-271 (scFv)
scFv: EVQLVETGAEVKKPGESLRISCKGSGYTFNNYWIGWVRQMPGKGLEWMGIIYPGDSDTRYSPSVQGHVTISADKSINTAYLQWSSLKASDTAVYYCARRPGYDYGFYYFDYWGQGTLVTVSSGTGGSGGTGSGTGGSTQSALTQPRSVSGSPGQSVTISCTGTSSDVGGYNYVSWYQHHPGKAPKLMIYDVSNRPLGVSNRFSGSKSGNTASLTISGLQAEDEADYYCSSYTSSSTYVFGTGTHLTVLS
B6: SC04-353 (scFv)
scFv: EVQLVQSGGGVVQPGRSLRLSCAASGFTFSNYAMHWVRQAPGKGLEWVAVISYDGGNKYYADSVKGRFTMSRDNSKNTLYLQMNSLRAEDTAVYYCARDFWSGYSMVDSYYYYMDVWGKGTTVTVSSGTGGSGGTGSGTGGSTETTLTQSPGTLSLSPGERATLSCRASQSVSNTFLAWYQQKPGQAPRLLIYGASSRATGIPDRFSGSGSGTDFTLTISRLEPEDFAAYYCQQYGSSLTFGPGTKVDIKR
B7: SC04-289 (scFv)
scFv: QMQLVQSGAEVKKPGESLRISCKGSGYSFTSNWITWVRQMPGKGLEWMGRIDPSDSYTNYSPSFQGHVTISADKSISTAYLQWSSLKASDTAMYYCARDVVGVGASDYYYYMDVWGKGTTVTVSSGTGGSGGTGSGTGGSTEIVLTQSPGTLSLSPGETATLSCRTSQSVSSSYLGWYQQKPGQAPRLLIYGASIRATGIPARFSGSGSGTEFTLTIDSLQSEDFAVYYCQQYNNWPPITFGQGTRLEIKR
B8: SC04-311 (scFv)
scFv: EVQLVQSGGGVVQPGRSLRLSCVASGFTFSKDAMHWVRQAPGKGLEWVAVISYDGSDKHYADSVKGRVTISRDNSRKTLYLRMDSLRAEDTALYYCARGYNSGHYFDYWGQGTLITVSSGTGGSGGTGSGTGGSTQSVLTQPPSVSAAPGQKVTISCSGTSSNIGDNYVSWYQHLPGTAPKLLIYDNNKRPSGIPDRFSGSKSGTSATLGVTGLQTGDEADYYCGTWDSSLTAVVFGGGTKLTVLG
B9: SC04-361 (scFv)
scFv: EVQLVQSGAEVKKPGESLKISCKASGFSFSTYWIGWVRQMPGKGLEWMGIIYPADSDTRYSPSFQGQVTISADKSISTAYLQWSSLKASDTAMYYCARLRGPYYDFWNGYRETHDAFNVWGQGTMVTVSSGTGGSGGTGSGTGGSTDVVMTQSPDSLAVSLGERATINCKSSQNILDNSDNKNFLAWYQQKPGQPPKLLIYWASARESGVPDRFSGSGSGTDFTLTISSLQAEDVALYYCQQYYNTPITFGQGTRLEIKR

Target: T1, recombinantly expressed purified …
Experiment: phage ELISA on coated recombinant soluble WNV E protein

Q: With B1 as the binder, how does the “OD 492 nm” value read?
A: 1.36 OD

Q: B2 was tested. Which “OD 492 nm” value did it give?
A: 0.072 OD

Q: For B3, which “OD 492 nm” value is on record?
A: 0.074 OD

Q: For B4, which “OD 492 nm” value is on record?
A: 1.4 OD

Q: How did the “OD 492 nm” value turn out when B5 was run?
A: 0.608 OD

Q: Which “OD 492 nm” value does the source give for B6 here?
A: 0.099 OD

Q: For B7, which “OD 492 nm” value is on record?
A: 1.39 OD

Q: With B8 as the binder, how does the “OD 492 nm” value read?
A: 1.54 OD

Q: Which “OD 492 nm” value does the source give for B9 here?
A: 0.076 OD

Target: T2, West Nile virus strain USA99b (strain 385-99), whole virus (West Nile virus strain 385-99 (USA99b))
T2 construct: mature
Experiment: phage ELISA on coated whole inactivated WNV

Q: With B2 as the binder, how does the “OD 492 nm” value read?
A: 1.07 OD

Q: For B3, which “OD 492 nm” value is on record?
A: 1.21 OD

Q: How did the “OD 492 nm” value turn out when B5 was run?
A: 0.984 OD

Q: Which “OD 492 nm” value does the source give for B7 here?
A: 0.759 OD

Q: Which “OD 492 nm” value does the source give for B8 here?
A: 1.04 OD
